Laboratory results reported in paper PMC5912465 (2018).
Positions count from the first letter of the chain named.

B1: CCL18 (ligand)
chain: AQVGTNKELCCLVYTSWQIPQKFIVDYSETSPQCPKPGVILLTKRGRQICADPNKKWVQKYISDLKLNA
B2: C-terminally tagged P672 (P672_RHIPU), glycosylated (natural protein)
chain: ETGVCEVSEQEGVGEDNATEDEDYEDFFKPVTCYFANSTVGPLRPPNCTVVCTNNTAWWNDTKSDGGHCYSEYRPEKRTHSREIYNCTIGVCGNGTCIANHTYADCW
modifications: glycosylated
B3: CCL3 (ligand)
chain: SLAADTPTACCFSYTSRQIPQNFIADYFETSSQCSKPGVIFLTKRSRQVCADPSEEWVQKYVSDLELSA
B4: N-terminally tagged P672 (P672_RHIPU), glycosylated (natural protein)
chain: VCEVSEQEGVGEDNATEDEDYEDFFKPVTCYFANSTVGPLRPPNCTVVCTNNTAWWNDTKSDGGHCYSEYRPEKRTHSREIYNCTIGVCGNGTCIANHTYADCW
modifications: N-glycosylated (six N-glycosylated residues identified by mass spectrometry, Asn-34 among them; marked in Figure 2A)
B5: CCL8 (human chemokine panel) (ligand)
chain: QPDSVSIPITCCFNVINRKIPIQRLESYTRITNIQCPKEAVIFKTKRGKEVCADPKERWVRDSMKHLDQIFQNLKP
B6: CCL14 (ligand)
chain: TKTESSSRGPYHPSECCFTYTTYKIPRQRIMDYYETNSQCSKPGIVFITKRGHSVCTNPSDKWVQDYIKDMKEN
B7: CCL4L1 (ligand)
chain: APMGSDPPTACCFSYTARKLPRNFVVDYYETSSLCSQPAVVFQTKRGKQVCADPSESWVQEYVYDLELN
B8: CCL4 (ligand)
chain: B7 chain with G47S
B9: CCL3L1 (ligand)
chain: APLAADTPTACCFSYTSRQIPQNFIADYFETSSQCSKPSVIFLTKRGRQVCADPSEEWVQKYVSDLELSA

Legend:
[1] = molecular target: evasin 1 (EVA1_RHISA), C-terminally tagged (Rhipicephalus sanguineus, UniProt P0C8E7 21-114, K92N); assay: BLI
[2] = molecular target: P672(1_44)-EVA1(29_94) hybrid evasin (Rhipicephalus pulchellus | …, UniProt L7MC74;P0C8E7, K92N); assay: BLI
[3] = molecular target: other, more extended hybrid molecules (P672_EVA1 hybrids); assay: BLI; P672(1_66):EVA1(47_94)
[4] = molecular target: other, more extended hybrid molecules (P672_EVA1 hybrids); assay: BLI; P672(1_92):EVA1(74_94)
CCL18 = molecular target: B1; assay: BLI
CCL23 = molecular target: T1, CCL23 (human, UniProt P55773 22-120); assay: BLI
T1 chain: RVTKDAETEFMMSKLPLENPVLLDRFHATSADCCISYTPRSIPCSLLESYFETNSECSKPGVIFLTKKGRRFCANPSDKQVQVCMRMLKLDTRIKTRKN

CCL3L1 = molecular target: B9; assay: BLI
CCL3 = molecular target: B3; assay: BLI
[5] = molecular target: B5; assay: BLI
CCL15 = molecular target: T2, CCL15 (human, UniProt Q16663 22-113); assay: BLI
T2 chain: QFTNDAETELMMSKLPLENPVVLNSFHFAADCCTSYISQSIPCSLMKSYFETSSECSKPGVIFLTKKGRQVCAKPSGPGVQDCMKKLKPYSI

CCL16 = molecular target: T3, CCL16 (human, UniProt O15467 24-120); assay: BLI
T3 chain: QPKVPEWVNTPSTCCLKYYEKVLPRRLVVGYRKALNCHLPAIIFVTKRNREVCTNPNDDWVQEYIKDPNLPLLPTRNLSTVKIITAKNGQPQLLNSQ

CCL13 = CCL13 (human, UniProt Q99616 17-98); assay: BLI
CCL14 = molecular target: B6; assay: BLI
CCL11 = CCL11 (human, UniProt P51671 24-97); assay: BLI
CCL7 = CCL7 (human, UniProt P80098 24-99); assay: BLI
CCL2 = CCL2 (human, UniProt P13500 24-99); assay: BLI
CCL1 = molecular target: T4, CCL1 (human, UniProt P22362 24-96); assay: BLI
T4 chain: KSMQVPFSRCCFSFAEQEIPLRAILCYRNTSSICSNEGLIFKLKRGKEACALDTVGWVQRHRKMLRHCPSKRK

Chain of CCL11 (P51671 24-97): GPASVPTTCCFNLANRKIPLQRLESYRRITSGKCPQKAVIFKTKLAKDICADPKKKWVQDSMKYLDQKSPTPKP
Chain of CCL13 (Q99616 17-98): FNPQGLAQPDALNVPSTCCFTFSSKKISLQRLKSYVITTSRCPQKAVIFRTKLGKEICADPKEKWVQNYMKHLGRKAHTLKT
Chain of CCL7 (P80098 24-99): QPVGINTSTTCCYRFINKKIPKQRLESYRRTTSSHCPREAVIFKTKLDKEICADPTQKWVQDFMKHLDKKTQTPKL

B1
Kd [1]: 2.02 nM
Kd [2]: 6.45 nM
Kd [3]: 3.69 nM
Kd [4]: 9.75 nM

B2
Kd (CCL18): 0.9 nM
Kd (CCL23): 9.7 nM
Kd (CCL3L1): 5.7 nM
Kd (CCL3): 13 nM
Kd [5]: 16.4 nM

B3
Kd [1]: 7.3 nM

B4
Kd (CCL15): 31.5 nM
Kd (CCL16): 9.6 nM
Kd (CCL18): 1.62 nM
Kd (CCL13): 7.6 nM
Kd (CCL23): 4.56 nM
Kd (CCL3L1): 1.63 nM
Kd (CCL14): 5.5 nM
Kd (CCL11): 2.29 nM
Kd (CCL7): 18.6 nM
Kd (CCL3): 0.954 nM
Kd [5]: 8.51 nM
Kd (CCL2): 21 nM
Kd (CCL1): 11 nM

B5
Kd [2]: 216 nM
Kd [3]: 277 nM
Kd [4]: 397 nM

B6
Kd [1]: 108 nM

B7
Kd [1]: 77.9 nM

B8
Kd [1]: 233 nM

B9
Kd [1]: 22.4 nM
